From patent US20230174652A1 (Regeneron, published 2023)

Tests used:
[1] = molecular target: T1, CD3 molecules on human T cells (human, UniProt P07766 23-207); test: cell-based or functional assay
[2] = molecular target: T1, CD3 molecules on human T cells; test: cell-based or functional assay; remark: listed apart in the source

T1 sequence (P07766 23-207): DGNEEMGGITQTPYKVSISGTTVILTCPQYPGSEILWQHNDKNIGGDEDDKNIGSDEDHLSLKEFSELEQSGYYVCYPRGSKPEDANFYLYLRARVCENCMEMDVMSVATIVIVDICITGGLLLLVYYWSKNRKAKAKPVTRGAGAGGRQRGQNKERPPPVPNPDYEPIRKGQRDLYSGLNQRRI

B1: REGN1979 (bispecific antibody, human IgG4 S228P, kappa)
heavy 1: EVQLVESGGGLVQPGRSLRLSCVASGFTFNDYAMHWVRQAPGKGLEWVSVISWNSDSIGYADSVKGRFTISRDNAKNSLYLQMHSLRAEDTALYYCAKDNHYGSGSYYYYQYGMDVWGQGTTVTVSSASTKGPSVFPLAPCSRSTSESTAALGCLVKDYFPEPVTVSWNSGALTSGVHTFPAVLQSSGLYSLSSVVTVPSSSLGTKTYTCNVDHKPSNTKVDKRVESKYGPPCPPCPAPPVAGPSVFLFPPKPKDTLMISRTPEVTCVVVDVSQEDPEVQFNWYVDGVEVHNAKTKPREEQFNSTYRVVSVLTVLHQDWLNGKEYKCKVSNKGLPSSIEKTISKAKGQPREPQVYTLPPSQEEMTKNQVSLTCLVKGFYPSDIAVEWESNGQPENNYKTTPPVLDSDGSFFLYSRLTVDKSRWQEGNVFSCSVMHEALHNHYTQKSLSLSLGK
heavy 2: EVQLVESGGGLVQPGRSLRLSCAASGFTFDDYTMHWVRQAPGKGLEWVSGISWNSGSIGYADSVKGRFTISRDNAKKSLYLQMNSLRAEDTALYYCAKDNSGYGHYYYGMDVWGQGTTVTVASASTKGPSVFPLAPCSRSTSESTAALGCLVKDYFPEPVTVSWNSGALTSGVHTFPAVLQSSGLYSLSSVVTVPSSSLGTKTYTCNVDHKPSNTKVDKRVESKYGPPCPPCPAPPVAGPSVFLFPPKPKDTLMISRTPEVTCVVVDVSQEDPEVQFNWYVDGVEVHNAKTKPREEQFNSTYRVVSVLTVLHQDWLNGKEYKCKVSNKGLPSSIEKTISKAKGQPREPQVYTLPPSQEEMTKNQVSLTCLVKGFYPSDIAVEWESNGQPENNYKTTPPVLDSDGSFFLYSRLTVDKSRWQEGNVFSCSVMHEALHNRFTQKSLSLSLGK
light: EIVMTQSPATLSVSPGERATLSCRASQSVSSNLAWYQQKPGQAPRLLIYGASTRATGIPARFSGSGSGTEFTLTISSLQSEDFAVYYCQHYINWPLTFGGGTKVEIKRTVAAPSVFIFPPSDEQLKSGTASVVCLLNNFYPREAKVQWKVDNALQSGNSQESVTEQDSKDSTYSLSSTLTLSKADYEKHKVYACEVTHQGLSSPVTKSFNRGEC
With B1 the “IFN-gamma release, Fold change (CKR), fixed REGN5837 0 (reference)” value [1] was 1 fold, the “IFN-gamma release, REGN1979 EC50 (M), fixed REGN5837 0” value [1] was 1.82e-10 M and the “IFN-gamma release, REGN1979 EC50 (M), fixed REGN5837 1.0 X 10^-7” value [1] was 1.17e-10 M. For the same binder, the “IFN-gamma release, REGN1979 EC50 (M), fixed REGN5837 1.67 X 10^-8” value [1] was 5.34e-11 M, the “IFN-gamma release, REGN1979 EC50 (M), fixed REGN5837 2.78 X 10^-9” value [1] was 2e-10 M and the “IFN-gamma release, REGN1979 EC50 (M), fixed REGN5837 4.63 X 10^-10” value [1] was 6.72e-11 M. For the same binder, the “IFN-gamma release, REGN1979 EC50 (M), fixed REGN5837 7.72 X 10^-11” value [1] was 6.57e-11 M, the “IL-2 release, Fold change (CKR), fixed REGN5837 0 (reference)” value [1] was 1 fold and the “IL-2 release, REGN1979 EC50 (M), fixed REGN5837 0” value [1] was 1.25e-10 M. The “IL-2 release, REGN1979 EC50 (M), fixed REGN5837 1.0 X 10^-7” value [1] was 2.81e-11 M, the “IL-2 release, REGN1979 EC50 (M), fixed REGN5837 1.67 X 10^-8” value [1] was 1.96e-11 M and the “IL-2 release, REGN1979 EC50 (M), fixed REGN5837 2.78 X 10^-9” value [1] was 5.18e-12 M. The “IL-2 release, REGN1979 EC50 (M), fixed REGN5837 4.63 X 10^-10” value [1] was 5.36e-11 M, the “IL-2 release, REGN1979 EC50 (M), fixed REGN5837 7.72 X 10^-11” value [1] was 3.89e-08 M and the “IL-4 release, Fold change (CKR), fixed REGN5837 0 (reference)” value [1] was 1 fold. For the same binder, the “IL-4 release, REGN1979 EC50 (M), fixed REGN5837 0” value [1] was 9.99e-10 M, the “IL-4 release, REGN1979 EC50 (M), fixed REGN5837 1.0 X 10^-7” value [1] was 1.66e-11 M and the “IL-4 release, REGN1979 EC50 (M), fixed REGN5837 1.67 X 10^-8” value [1] was 1.53e-11 M. For the same binder, the “IL-4 release, REGN1979 EC50 (M), fixed REGN5837 2.78 X 10^-9” value [1] was 1.28e-11 M, the “IL-4 release, REGN1979 EC50 (M), fixed REGN5837 4.63 X 10^-10” value [1] was 1.89e-11 M and the “IL-4 release, REGN1979 EC50 (M), fixed REGN5837 7.72 X 10^-11” value [1] was 3.77e-10 M. For the same binder, the “IL-6 release, Fold change (CKR), fixed REGN5837 0 (reference)” value [1] was 1 fold, the “IL-6 release, REGN1979 EC50 (M), fixed REGN5837 0” value [1] was 7.42e-11 M and the “IL-6 release, REGN1979 EC50 (M), fixed REGN5837 1.0 X 10^-7” value [1] was 5.13e-11 M. For the same binder, the “IL-6 release, REGN1979 EC50 (M), fixed REGN5837 1.67 X 10^-8” value [1] was 7.89e-12 M, the “IL-6 release, REGN1979 EC50 (M), fixed REGN5837 2.78 X 10^-9” value [1] was 2.68e-11 M and the “IL-6 release, REGN1979 EC50 (M), fixed REGN5837 4.63 X 10^-10” value [1] was 1.45e-12 M. The “IL-6 release, REGN1979 EC50 (M), fixed REGN5837 7.72 X 10^-11” value [1] was 1.61e-10 M, the “IL-10 release, Fold change (CKR), fixed REGN5837 0 (reference)” value [1] was 1 fold and the “IL-10 release, REGN1979 EC50 (M), fixed REGN5837 0” value [1] was 9.95e-11 M. For the same binder, the “IL-10 release, REGN1979 EC50 (M), fixed REGN5837 1.0 X 10^-7” value [1] was 3.54e-11 M, the “IL-10 release, REGN1979 EC50 (M), fixed REGN5837 1.67 X 10^-8” value [1] was 1.04e-10 M and the “IL-10 release, REGN1979 EC50 (M), fixed REGN5837 2.78 X 10^-9” value [1] was 2.43e-10 M. For the same binder, the “IL-10 release, REGN1979 EC50 (M), fixed REGN5837 4.63 X 10^-10” value [1] was 5.29e-11 M, the “IL-10 release, REGN1979 EC50 (M), fixed REGN5837 7.72 X 10^-11” value [1] was 3.34e-11 M and the “IL-17A release, Fold change (CKR), fixed REGN5837 0 (reference)” value [1] was 1 fold. The “IL-17A release, REGN1979 EC50 (M), fixed REGN5837 0” value [1] was 2.5e-10 M, the “IL-17A release, REGN1979 EC50 (M), fixed REGN5837 1.0 X 10^-7” value [1] was 3.22e-10 M and the “IL-17A release, REGN1979 EC50 (M), fixed REGN5837 1.67 X 10^-8” value [1] was 1.11e-10 M. The “IL-17A release, REGN1979 EC50 (M), fixed REGN5837 2.78 X 10^-9” value [1] was 7.6e-11 M, the “IL-17A release, REGN1979 EC50 (M), fixed REGN5837 4.63 X 10^-10” value [1] was 4.63e-10 M and the “IL-17A release, REGN1979 EC50 (M), fixed REGN5837 7.72 X 10^-11” value [1] was 1.86e-10 M. For the same binder, the “TNF alpha release, Fold change (CKR), fixed REGN5837 0 (reference)” value [1] was 1 fold, the “TNF alpha release, REGN1979 EC50 (M), fixed REGN5837 0” value [1] was 2.43e-10 M and the “TNF alpha release, REGN1979 EC50 (M), fixed REGN5837 1.0 X 10^-7” value [1] was 5.03e-12 M. For the same binder, the “TNF alpha release, REGN1979 EC50 (M), fixed REGN5837 1.67 X 10^-8” value [1] was 8.69e-13 M, the “TNF alpha release, REGN1979 EC50 (M), fixed REGN5837 2.78 X 10^-9” value [1] was 3.45e-12 M and the “TNF alpha release, REGN1979 EC50 (M), fixed REGN5837 7.72 X 10^-11” value [1] was 1.62e-10 M. The “CD4+ T cell activation (% CD25+), Fold Change (EC50), fixed REGN5837 0 (reference)” value [2] was 1 fold, the “CD4+ T cell activation (% CD25+), REGN1979 EC50 (M), fixed REGN5837 0” value [2] was 9.17e-13 M and the “CD4+ T cell activation (% CD25+), REGN1979 EC50 (M), fixed REGN5837 1.00 × 10^-7” value [2] was 1.16e-13 M. For the same binder, the “CD4+ T cell activation (% CD25+), REGN1979 EC50 (M), fixed REGN5837 1.67 × 10^-8” value [2] was 8.7e-14 M, the “CD4+ T cell activation (% CD25+), REGN1979 EC50 (M), fixed REGN5837 4.63 × 10^-10” value [2] was 1.46e-13 M and the “CD4+ T cell activation (% CD25+), REGN1979 EC50 (M), fixed REGN5837 7.72 × 10^-11” value [2] was 2.08e-13 M. The “CD4+ T-cell Proliferation, Fold Change (EC50), fixed REGN5837 0 (reference)” value [2] was 1 fold, the “CD4+ T-cell Proliferation, REGN1979 EC50 (M), fixed REGN5837 0” value [2] was 1.63e-11 M and the “CD4+ T-cell Proliferation, REGN1979 EC50 (M), fixed REGN5837 1.00 × 10^-7” value [2] was 8.42e-13 M. For the same binder, the “CD4+ T-cell Proliferation, REGN1979 EC50 (M), fixed REGN5837 1.67 × 10^-8” value [2] was 9.31e-13 M, the “CD4+ T-cell Proliferation, REGN1979 EC50 (M), fixed REGN5837 2.78 × 10^-9” value [2] was 4.25e-13 M and the “CD4+ T-cell Proliferation, REGN1979 EC50 (M), fixed REGN5837 4.63 × 10^-10” value [2] was 1.25e-12 M. For the same binder, the “CD4+ T-cell Proliferation, REGN1979 EC50 (M), fixed REGN5837 7.72 × 10^-11” value [2] was 2.36e-12 M, the “CD8+ T cell activation (% CD25+), Fold Change (EC50), fixed REGN5837 0 (reference)” value [2] was 1 fold and the “CD8+ T cell activation (% CD25+), REGN1979 EC50 (M), fixed REGN5837 0” value [2] was 3.38e-12 M. The “CD8+ T cell activation (% CD25+), REGN1979 EC50 (M), fixed REGN5837 1.00 × 10^-7” value [2] was 6.32e-13 M, the “CD8+ T cell activation (% CD25+), REGN1979 EC50 (M), fixed REGN5837 1.67 × 10^-8” value [2] was 5.88e-13 M and the “CD8+ T cell activation (% CD25+), REGN1979 EC50 (M), fixed REGN5837 2.78 × 10^-9” value [2] was 2.68e-13 M. For the same binder, the “CD8+ T cell activation (% CD25+), REGN1979 EC50 (M), fixed REGN5837 4.63 × 10^-10” value [2] was 9.01e-13 M, the “CD8+ T cell activation (% CD25+), REGN1979 EC50 (M), fixed REGN5837 7.72 × 10^-11” value [2] was 1.64e-12 M and the “CD8+ T-cell Proliferation, Fold Change (EC50), fixed REGN5837 0 (reference)” value [2] was 1 fold. For the same binder, the “CD8+ T-cell Proliferation, REGN1979 EC50 (M), fixed REGN5837 0” value [2] was 1.97e-11 M, the “CD8+ T-cell Proliferation, REGN1979 EC50 (M), fixed REGN5837 1.00 × 10^-7” value [2] was 1.55e-12 M and the “CD8+ T-cell Proliferation, REGN1979 EC50 (M), fixed REGN5837 1.67 × 10^-8” value [2] was 8.31e-13 M. The “CD8+ T-cell Proliferation, REGN1979 EC50 (M), fixed REGN5837 2.78 × 10^-9” value [2] was 7.09e-13 M, the “CD8+ T-cell Proliferation, REGN1979 EC50 (M), fixed REGN5837 4.63 × 10^-10” value [2] was 3.43e-12 M and the “CD8+ T-cell Proliferation, REGN1979 EC50 (M), fixed REGN5837 7.72 × 10^-11” value [2] was 8.36e-12 M. For the same binder, the “WSU-DLCL2 Cell Killing, Fold Change (EC50), fixed REGN5837 0 (reference)” value [2] was 1 fold, the “WSU-DLCL2 Cell Killing, REGN1979 EC50 (M), fixed REGN5837 0” value [2] was 2.89e-12 M and the “WSU-DLCL2 Cell Killing, REGN1979 EC50 (M), fixed REGN5837 1.00 × 10^-7” value [2] was 8.53e-14 M. For the same binder, the “WSU-DLCL2 Cell Killing, REGN1979 EC50 (M), fixed REGN5837 1.67 × 10^-8” value [2] was 1.85e-13 M, the “WSU-DLCL2 Cell Killing, REGN1979 EC50 (M), fixed REGN5837 2.78 × 10^-9” value [2] was 3.98e-13 M and the “WSU-DLCL2 Cell Killing, REGN1979 EC50 (M), fixed REGN5837 4.63 × 10^-10” value [2] was 3.46e-13 M. For the same binder, the “WSU-DLCL2 Cell Killing, REGN1979 EC50 (M), fixed REGN5837 7.72 × 10^-11” value [2] was 8.37e-13 M.
